In IntAct's records for PubMed 24290140:

Target: Fhl1, P97447-2
Sequence (P97447 other isoform, or with tags, fused parts or gaps): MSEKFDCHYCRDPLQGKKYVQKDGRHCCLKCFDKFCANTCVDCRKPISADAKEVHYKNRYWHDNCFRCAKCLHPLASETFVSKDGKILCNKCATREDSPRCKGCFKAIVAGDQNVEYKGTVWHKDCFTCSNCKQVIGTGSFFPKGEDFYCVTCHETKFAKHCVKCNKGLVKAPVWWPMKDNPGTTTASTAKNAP

Recombining binding protein suppressor of hairless (Mus musculus), P31266 A284R, sequence (P31266 whole entry A284R): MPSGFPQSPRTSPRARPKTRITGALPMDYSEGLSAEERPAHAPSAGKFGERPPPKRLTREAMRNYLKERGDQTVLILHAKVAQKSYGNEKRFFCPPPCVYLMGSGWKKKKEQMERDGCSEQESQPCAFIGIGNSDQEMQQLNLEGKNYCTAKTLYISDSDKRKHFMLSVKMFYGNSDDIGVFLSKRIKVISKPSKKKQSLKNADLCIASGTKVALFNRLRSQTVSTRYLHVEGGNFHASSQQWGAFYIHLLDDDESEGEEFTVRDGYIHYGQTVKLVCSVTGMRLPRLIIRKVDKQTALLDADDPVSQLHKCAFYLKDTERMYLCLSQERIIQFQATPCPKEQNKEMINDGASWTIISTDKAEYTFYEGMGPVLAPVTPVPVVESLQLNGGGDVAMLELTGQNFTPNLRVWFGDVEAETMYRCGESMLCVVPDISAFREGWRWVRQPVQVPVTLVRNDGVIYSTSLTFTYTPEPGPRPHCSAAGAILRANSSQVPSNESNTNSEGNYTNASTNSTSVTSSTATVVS
Recombining binding protein suppressor of hairless (Mus musculus), P31266 F261R, sequence (P31266 whole entry F261R): as the sequence (P31266 whole entry A284R) above, with F261R, R284A counted along it

| Substance | effect of a mutation on the interaction |
| --- | --- |
| Recombining binding protein suppressor of hairless (Mus musculus), P31266 A284R | decreasing interaction strength |
| Recombining binding protein suppressor of hairless (Mus musculus), P31266 F261R | decreasing interaction strength |
